Experimental findings from patent US20230109780A1 (XIYUAN ANJIAN MEDICINE SHANGHAI, published 2023) are described below.

Assay [1] deals with T1, human NT-4 (human, UniProt P34130 81-210).
T1 construct: Bought protein; also called Neurotrophic factor-4
T1 sequence (looked up): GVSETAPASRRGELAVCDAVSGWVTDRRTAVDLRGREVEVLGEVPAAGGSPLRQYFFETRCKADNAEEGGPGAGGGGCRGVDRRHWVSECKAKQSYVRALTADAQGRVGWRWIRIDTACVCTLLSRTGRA
In words: ELISA, plate coated with human NT-4 (50 ng per well), OD450.

Assay [2] concerns the target T2, recombinant human NGF protein (human, UniProt P01138 122-241). In words: cell-based or functional assay.
Assay [3] has as its target T3, human BDNF (human, UniProt P23560 129-247).
T3 construct: Bought protein; also called Brain-Derived Neurotrophic Factor
T3 sequence (looked up): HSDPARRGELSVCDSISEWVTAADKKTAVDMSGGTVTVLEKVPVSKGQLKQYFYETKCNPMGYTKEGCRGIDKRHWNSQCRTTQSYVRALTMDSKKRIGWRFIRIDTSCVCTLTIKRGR
Nature of the assay: ELISA, plate coated with human BDNF (50 ng per well), OD450. In general terms: In an ELISA, binding on a coated surface is turned into a signal by an enzyme label.

Assay [4] has as its target T2, recombinant human NGF protein. In words: ELISA, human NGF coated. On the procedure:
The affinity and specificity of humanized antibody were investigated by using human NGF as an antigen (Beijing Yiqiao Shenzhou Technology Co., Ltd., 11050-HNAC). NGF was diluted with […] coating solution (PBS), and each well of 96-well microtiter plate was coated with 50 ng, after washing and blocking, and then added with serially diluted antibodies, and incubated at room temperature for 1 hour. After washing three times, HRP-conjugated donkey anti-human IgG antibody (Biolegend) was added and reacted at room temperature for 1 hour. After washing three times, tetramethylbenzidine (TMB, Biolegend) was added for color development. 1M HC1 was […] used to terminate the color development, and the absorbance values were read at 450 nm with a microplate reader.

The target of assay [5] is T4, human NT-3 (human, UniProt P20783 139-257).
T4 construct: Bought protein; also called Neurotrophic factor-3
T4 sequence (looked up): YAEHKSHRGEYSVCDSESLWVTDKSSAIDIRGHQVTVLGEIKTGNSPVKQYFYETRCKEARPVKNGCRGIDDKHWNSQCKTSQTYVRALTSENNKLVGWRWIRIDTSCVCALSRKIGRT
In words: ELISA, plate coated with human NT-3 (50 ng per well), OD450.

Assay [6] has as its target T2, recombinant human NGF protein. Nature of the assay: blocking ELISA, human NGF coated, antibody first, then TrkA-Fc. The method, then: If using the coated ligand NGF method for detection, each well of a 96-well microtiter plate was coated with 50 ng of human NGF and washed three times. […] 100 μL of 1 μg/mL TrkA fused to human Fc was added to each well, incubated for 1 hour at room temperature, and washed three times. HRP-conjugated donkey anti-human IgG antibody (Biolegend, 410902) was added and reacted for 1-hour at room temperature. After washing, add TMB to develop color, and read after the termination of development.

For assay [7] the target is unchanged. Nature of the assay: cell-based or functional assay. The source holds these as a separate data set.
The target is the same in assay [8]. In words: BLI (ForteBio Octet Red96), biotin-NGF on SA sensor, antibody in solution. An excerpt:
The affinities of the antibodies were detected with Biomolecular Interaction Detection Platform (ForteBio Octet Red96 (PALL)). Biotin-labeled human NGF was immobilized by using SA (Streptavidin) Biosensor (Fortebio, 18-5021), and then conjugated with gradient concentrations of anti-NGF antibodies.
(In general: In BLI a coated tip is dipped into the sample, and binding shifts an interference pattern.)

For assay [9] the target is unchanged. Nature of the assay: ELISA, human NGF coated. The method, then:
The binding capacity of anti-NGF antibodies was investigated by using human NGF as an antigen (Beijing Yiqiao Shenzhou Technology Co., Ltd., 11050-HNAC). Each well of a 96-well microtiter plate was coated with 50 ng of human NGF, after washing and blocking, and then added with serially diluted antibodies, and incubated at room temperature for 1 hour. After washing three times, HRP-conjugated goat anti-mouse antibody (Biolegend, 405306) was added and incubated at room temperature for 1 hour. After washing three times, tetramethylbenzidine (TMB, Biolegend, 421101) was added for color development. 1M HC1 was used to terminate the color development, and the absorbance values were read at 450 nm with a microplate reader.
This is another data set of the same source.

The target is the same in assay [10]. In words: cell-based or functional assay. This is another data set of the same source.
Assay [11] has the same target. In words: blocking ELISA, TrkA-Fc coated, antibody premixed with biotin-labeled human NGF. The method, then:
If the method of coated receptor TrkA is used for detection, 50 ng of NGF receptor TrkA protein (fused to human Fc) was coated in each well of a 96-well microtiter plate, washed three times, and then blocked with 3% BSA for 1 hour. […] 100 μl was taken and mixed with an equal volume of 1 μg/mL biotin-labeled human NGF, incubated at room temperature for 0.5 hours, and then added to an ELISA plate which has been washed with blocking solution. Incubated for 1 hour at room temperature and washed three times. Streptavidin-labeled HRP (Biolegend, 405210) was added, and incubated for 0.5 h and then washed three times. The microtiter plate was added with TMB, and read after the color development was terminated.

For assay [12] the target is unchanged. In words: cell-based or functional assay. This is another data set of the same source.
In assay [13] the target is T4, human NT-3. Nature of the assay: ELISA, plate coated with human NT-3 (50 ng per well), OD450. The method, then:
Each well of a 96-well microtiter plate was coated with 50 ng of human NGF (Beijing Yiqiao Shenzhou Technology Co., Ltd., 11050-HNAC), human BDNF (Beijing Yiqiao Shenzhou Technology Co., Ltd., 50240-MNAS), human NT-3 (Beijing Yiqiao Shenzhou Technology Co., Ltd., 10286-HNAE), or human NT-4 (Alomone, N-270). The bindings of the murine anti-NGF antibodies to human NGF and three homo-family proteins were detected according to the method described in Example 2.
The binding of the humanized anti-NGF antibody to human NGF and to three homo-family proteins was detected according to the ELISA method described in Example 6A.
This is another data set of the same source.

The target in assay [14] is T1, human NT-4. In words: ELISA, plate coated with human NT-4 (50 ng per well), OD450. This is another data set of the same source.
The target of assay [15] is T3, human BDNF. In words: ELISA, plate coated with human BDNF (50 ng per well), OD450. This is another data set of the same source.

Changes are numbered by the printed parent chain. Where two headings read alike, the source gives them in different places.

T2 sequence (P01138 122-241 limits assumed): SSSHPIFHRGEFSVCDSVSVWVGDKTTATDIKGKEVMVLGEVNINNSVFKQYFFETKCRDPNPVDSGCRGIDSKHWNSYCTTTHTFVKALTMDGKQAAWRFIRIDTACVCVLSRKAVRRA

B1: human-mouse chimeric antibody 43E5-chi (antibody, V domains shown)
VH: QVQLQQSGAELVRPGASVTLSCKASGYTFTDYEMHWVRQTPVHGLEWIGAIDPETGGTAYNQKFKGKATLTADKSSSTAYMELRSLTSEDSAVYYCRRGANLNHYGNDEGSYWGQGTLVTVSA
VL: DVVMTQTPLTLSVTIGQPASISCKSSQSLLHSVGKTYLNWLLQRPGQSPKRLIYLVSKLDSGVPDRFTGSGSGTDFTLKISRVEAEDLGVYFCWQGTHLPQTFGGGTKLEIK
notes: the constant regions are not specified
For B1, the binding result with human NT-4 [1], with human BDNF [3] and with human NT-3 [5] was “no binding (tested: 66.67 nM)” throughout. In addition, the “IC50, inhibition of NGF-induced proliferation of TF-1 cell” value (“IC50, inhibition … of TF-1 cell” for short) in assay [2] came to 0.255 nM. Moreover, the EC50 in assay [4] is 0.104 nM.

B2: murine anti-human NGF monoclonal antibody 137H8 (antibody, V domains shown)
VH: QVQLKESGPGLVAPSQSLSITCTVSGFSLTGYAVNWVRQPPGKGLEWLGMIWFDGSTDYNSALKSRLSISKDNSKSQVFLKMNSLQTDDTARYYCARDYYGSSWYFDVWGAGTTVTVSS
VL: DIQMTQTTSSLSASLGDRVTISCRASQDISYYLNWYQQKPDGTVKLLIYYTSRLHSGVPSRFSGSGSGTDYSLTISNLEQEDIATYFCQQGNTLPRTFGGGTKLDIK
notes: Murine monoclonal antibody purified from hybridoma medium by protein G; also called anti-NGF antibody 137H8
With B2, the IC50 in assay [6] was 0.791 nM. The “IC50 (row head prints EC50), inhibition of reporter gene expression in TrkA/NFAT-bla/CHO cells” value in assay [7] is 0.0859 nM. In assay [8], the Kd worked out at 0.381 nM, the koff was 4.91e-05 s⁻¹ and the kon stood at 129000 M⁻¹ s⁻¹. Also, the EC50 in [9] was 0.112 nM. Besides, the “IC50, inhibition of NGF-induced proliferation of TrkA/Ba/F3 cells” value in assay [10] is 0.083 nM. In assay [11], the concentration for half-maximal inhibition (IC50) is 0.738 nM. Besides, in assay [12], the “IC50, inhibition … of TF-1 cell” value was 0.123 nM.

B3: human-mouse chimeric antibody 138E12-Chi (antibody, V domains shown)
VH: QVQLKESGPGLVAPSQSLSITCTVSGFSLTGYGVNWVRQPPGKGLEWLGMIWFDGSTDYNSALKSRLSISKDNSKSQVFLKMNSLQTDDTARYYCAREGYYYGTTYYFDYWGQGTTLTVSS
VL: B2 VL with Y31N, D105E
notes: as for B1
On to B3, for which the binding result in the assay with human NT-3 [13], with human NT-4 [14] and with human BDNF [15] was “no binding (tested: 66.67 nM)” each time. The “IC50, inhibition … of TF-1 cell” value in assay [2] was 0.074 nM. In addition, the EC50 in assay [4] stood at 0.0454 nM.

B4: humanized anti-NGF antibody 43E5-02 (antibody, V domains shown)
VH: QVQLVQSGAEVKKPGASVKVSCKASGYTFTDYEMHWVRQAPGQGLEWIGAIDPETGGTAYNQKFKGRATLTADKSISTAYMELSRLRSDDTAVYYCRRGANLNHYGNDEGSYWGQGTLVTVSS
VL: DVVMTQSPLSLPVTLGQPASISCKSSQSLLHSVGKTYLNWLQQRPGQSPRRLIYLVSKLDSGVPDRFSGSGSGTDFTLKISRVEAEDVGVYFCWQGTHLPQTFGGGTKVEIK
notes: Humanized antibody expressed in CHO cells
Consider B4, for which the binding result in the assay with human NT-4 [1], with human BDNF [3] and with human NT-3 [5] was “no binding (tested: 66.67 nM)” each time. In [2], the “IC50, inhibition … of TF-1 cell” value came to 0.534 nM. In addition, the EC50 in assay [4] was 0.222 nM.

B5: humanized anti-NGF antibody 43E5-05 (antibody, V domains shown)
VH: B4 VH with A16S, I48M, A68V, L70I, I76T, R85S, D89E
VL: B4 VL
notes: as for B4
Consider B5, for which the binding result with human NT-4 [1], with human BDNF [3] and in the assay with human NT-3 [5] was “no binding (tested: 66.67 nM)” throughout. For the same molecule, the “IC50, inhibition … of TF-1 cell” value in [2] is 0.701 nM. Also, the EC50 in assay [4] was determined as 0.214 nM.

B6: humanized anti-NGF antibody 43E5-06 (antibody, V domains shown)
VH: B4 VH with A16S, I76T, R85S, D89E
VL: B4 VL
notes: as for B4
In the case of B6, the binding result with human NT-4 [1], with human BDNF [3] and with human NT-3 [5] was “no binding (tested: 66.67 nM)” throughout. The “IC50, inhibition … of TF-1 cell” value in assay [2] worked out at 0.568 nM. In [4], the half-maximal effective concentration (EC50) was 0.192 nM.

B7: humanized anti-NGF antibody 43E5-01 (antibody, V domains shown)
VH: B4 VH with I48M, A68V, L70M
VL: B4 VL
notes: as for B4
With B7, the binding result in the assay with human NT-4 [1], with human BDNF [3] and with human NT-3 [5] was “no binding (tested: 66.67 nM)” throughout. Further, the “IC50, inhibition … of TF-1 cell” value in assay [2] worked out at 0.582 nM. For the same molecule, the EC50 in assay [4] is 0.229 nM.

B8: humanized anti-NGF antibody 138E12-11 (antibody, V domains shown)
VH: QVQLQESGPGLVKPSETLSLTCTVSGFSLTGYGVNWIRQPPGKGLEWLGMIWFEGSTDYQSALKSRLTISKDNSKSQVSLKLSSVTAADTAVYYCAREGYYYGTTYYFDYWGQGTTVTVSS
VL: DIQMTQSPSSLSASVGDRVTITCRASQDISNYLNWYQQKPGKAPKLLIYYTSRLHSGVPSRFSGSGSGTDYTLTISSLQPEDFATYFCQQGNTLPRTFGGGTKVEIK
With B8, the binding result with human NT-3 [13], with human NT-4 [14] and in the assay with human BDNF [15] was “no binding (tested: 66.67 nM)” in each case. In assay [2], the “IC50, inhibition … of TF-1 cell” value was determined as 0.062 nM. Moreover, in assay [4], the EC50 is 0.0324 nM.

Usually EC50 stands for the midpoint of the concentration-response curve. By IC50 is commonly meant the point on the concentration scale where inhibition reaches its midpoint. For orientation: Kd means a measure of binding affinity in units of concentration. As usually defined, the koff is the first-order rate constant of dissociation. As a reminder, the kon is the rate constant with which the complex forms.
